Blank lines part the entries; values can stand above or below the binder they belong to.
B2: DI-KS(AG(f0) SEED)-IL-2 heavy chain with DI-KS light chain (antibody)
heavy: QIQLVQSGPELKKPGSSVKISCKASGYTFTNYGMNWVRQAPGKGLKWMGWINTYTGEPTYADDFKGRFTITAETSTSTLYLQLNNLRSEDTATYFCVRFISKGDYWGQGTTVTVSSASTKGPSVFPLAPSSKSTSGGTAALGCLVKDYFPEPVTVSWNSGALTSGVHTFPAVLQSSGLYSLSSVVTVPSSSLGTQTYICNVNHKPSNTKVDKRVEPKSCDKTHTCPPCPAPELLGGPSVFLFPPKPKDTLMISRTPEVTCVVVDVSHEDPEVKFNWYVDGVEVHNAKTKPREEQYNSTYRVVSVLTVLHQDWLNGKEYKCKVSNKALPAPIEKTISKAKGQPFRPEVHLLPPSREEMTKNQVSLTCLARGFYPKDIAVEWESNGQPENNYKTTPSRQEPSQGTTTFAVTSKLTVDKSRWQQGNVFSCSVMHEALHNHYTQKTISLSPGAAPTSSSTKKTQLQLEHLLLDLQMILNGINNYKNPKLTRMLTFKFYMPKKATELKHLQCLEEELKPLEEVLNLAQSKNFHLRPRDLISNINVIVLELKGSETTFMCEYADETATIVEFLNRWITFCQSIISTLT
light: QIVLTQSPASLAVSPGQRATITCSASSSVSYILWYQQKPGQPPKPWIFDTSNLASGFPSRFSGSGSGTSYTLTINSLEAEDAATYYCHQRSGYPYTFGGGTKVEIKRTVAAPSVFIFPPSDEQLKSGTASVVCLLNNFYPREAKVQWKVDNALQSGNSQESVTEQDSKDSTYSLSSTLTLSKADYEKHKVYACEVTHQGLSSPVTKSFNRGEC
notes: also called heavy chain-IL2

Key:
[1] = molecular target: B2; assay: co-expression in mammalian cells, non-reducing SDS-PAGE (heterodimer)
[2] = molecular target: the molecule itself; assay: co-expression in mammalian cells, non-reducing SDS-PAGE (homodimer)
[3] = molecular target: the molecule itself; assay: co-expression of both heavy chains and the light chain in mammalian cells, non-reducing SDS-PAGE
[4] = molecular target: T1, Fc(AG(f0) SEED)-IL2; assay: co-expression in NS/0 cells, SDS-PAGE (figure legend)
T1 construct: also called "Full" AG SEED-IL-2; Fc(AG SEED)-IL2

[5] = molecular target: the molecule itself; assay: co-expression with Fc(AG(f0) SEED)-IL2 in NS/0 cells, non-reducing SDS-PAGE (homodimer)
[6] = molecular target: T2, Fc(AG(s0) SEED)-IL2 (human); assay: co-expression in NS/0 cells, SDS-PAGE (figure legend)
T2 construct: It was put together from the cloning scheme (Ngo MIV/Sma I fragment exchange in the pdCs Fc-IL2 vector); also called "Surface" AG SEED-IL-2; AG SURF

[7] = molecular target: the molecule itself; assay: co-expression with Fc(AG(s0) SEED)-IL2 in NS/0 cells, non-reducing SDS-PAGE (homodimer)

Binder: B2
- binding result [3]: no binding

B3: Fc(GA(f0) SEED) (designed binder)
chain: EPKSSDKTHTCPPCPAPELLGGPSVFLFPPKPKDTLMISRTPEVTCVVVDVSHEDPEVKFNWYVDGVEVHNAKTKPREEQYNSTYRVVSVLTVLHQDWLNGKEYKCKVSNKALPAPIEKTISKAKGQPREPQVYTLPPPSEELALNELVTLTCLVKGFYPSDIAVEWLQGSQELPREKYLTWAPVLDSDGSFFLYSILRVAAEDWKKGDTFSCSVMHEALHNHYTQKSLDRSPGK
notes: also called "Full" GA SEED; Fc(GA SEED)
- binding result [4]: binds
- binding result [5]: binds

The next lines start with results.

- binding result [1]: binds
B1: DI-KS(GA(f0) SEED) heavy chain with DI-KS light chain (antibody)
heavy: QIQLVQSGPELKKPGSSVKISCKASGYTFTNYGMNWVRQAPGKGLKWMGWINTYTGEPTYADDFKGRFTITAETSTSTLYLQLNNLRSEDTATYFCVRFISKGDYWGQGTTVTVSSASTKGPSVFPLAPSSKSTSGGTAALGCLVKDYFPEPVTVSWNSGALTSGVHTFPAVLQSSGLYSLSSVVTVPSSSLGTQTYICNVNHKPSNTKVDKRVEPKSCDKTHTCPPCPAPELLGGPSVFLFPPKPKDTLMISRTPEVTCVVVDVSHEDPEVKFNWYVDGVEVHNAKTKPREEQYNSTYRVVSVLTVLHQDWLNGKEYKCKVSNKALPAPIEKTISKAKGQPREPQVYTLPPPSEELALNELVTLTCLVKGFYPSDIAVEWLQGSQELPREKYLTWAPVLDSDGSFFLYSILRVAAEDWKKGDTFSCSVMHEALHNHYTQKSLDRSPGK
light: QIVLTQSPASLAVSPGQRATITCSASSSVSYILWYQQKPGQPPKPWIFDTSNLASGFPSRFSGSGSGTSYTLTINSLEAEDAATYYCHQRSGYPYTFGGGTKVEIKRTVAAPSVFIFPPSDEQLKSGTASVVCLLNNFYPREAKVQWKVDNALQSGNSQESVTEQDSKDSTYSLSSTLTLSKADYEKHKVYACEVTHQGLSSPVTKSFNRGEC
notes: It has anti-EpCAM V regions, human IgG1 CH1 and CH2, and human Ckappa; also called antibody heavy chain (no IL-2)
- binding result [2]: binds

- binding result [6]: binds
B4: Fc(GA(s0) SEED) (designed binder)
chain: EPKSSDKTHTCPPCPAPELLGGPSVFLFPPKPKDTLMISRTPEVTCVVVDVSHEDPEVKFNWYVDGVEVHNAKTKPREEQYNSTYRVVSVLTVLHQDWLNGKEYKCKVSNKALPAPIEKTISKAKGQPREPQVYTLPPPSEELALNNQVTLTCLVKGFYPSDIAVEWESNGQPEPREKYLTWAPVLDSDGSFFLYSILRVDASRWQQGNVFSCSVMHEALHNHYTQKSLSLSPGK
notes: It was put together from the cloning scheme: the Ngo MIV/Sma I fragment for the SEED replaces that of CH3 in the pdCs Fc vector; also called "Surface" GA SEED; GA SURF
- binding result [7]: binds

From patent US20070287170A1 (Merck KGaA, published 2007)
